Reference: patent publication US20250218531A1 (ABSCI, published 2025)
“And” between values parts separate entries of the source, which are not always exact repeats. Equal values may be shown once.

Biological target: T1, HER2 (human epidermal growth factor receptor 2) (human, UniProt P04626 23-629)
T1 construct: also called Antigen: HER2
Assay: SPR

| Binder | Kd | log(KD (M)) |
| --- | --- | --- |
| Trastuzumab HCDR3 variant AKYINAYSYAFFD (Fab, V domains shown) VH: EVQLVESGGGLVQPGGSLRLSCAASGFNIKDTYIHWVRQAPGKGLEWVARIYPTNGYTRYADSVKGRFTISADTSKNTAYLQMNSLRAEDTAVYYCAKYINAYSYAFFDWGQGTLVTVSS VL: not shown | 0.017 µM and 0.0169 µM | -7.77 |
| Trastuzumab HCDR3 variant ARWGYGYSYYFDV (Fab, V domains shown) VH: EVQLVESGGGLVQPGGSLRLSCAASGFNIKDTYIHWVRQAPGKGLEWVARIYPTNGYTRYADSVKGRFTISADTSKNTAYLQMNSLRAEDTAVYYCARWGYGYSYYFDVWGQGTLVTVSS VL: not shown | 0.0211 µM | -7.68 |
| Trastuzumab HCDR3 variant ARWGYYGNYYFDY (Fab, V domains shown) VH: EVQLVESGGGLVQPGGSLRLSCAASGFNIKDTYIHWVRQAPGKGLEWVARIYPTNGYTRYADSVKGRFTISADTSKNTAYLQMNSLRAEDTAVYYCARWGYYGNYYFDYWGQGTLVTVSS VL: not shown | 0.0134 µM | -7.87 |
| Trastuzumab HCDR3 variant ARWYYYGGYYFDV (Fab, V domains shown) VH: EVQLVESGGGLVQPGGSLRLSCAASGFNIKDTYIHWVRQAPGKGLEWVARIYPTNGYTRYADSVKGRFTISADTSKNTAYLQMNSLRAEDTAVYYCARWYYYGGYYFDVWGQGTLVTVSS VL: not shown | 0.0125 µM | -7.9 |
| Trastuzumab HCDR3 variant ARWLGSGYYWFDY (Fab, V domains shown) VH: EVQLVESGGGLVQPGGSLRLSCAASGFNIKDTYIHWVRQAPGKGLEWVARIYPTNGYTRYADSVKGRFTISADTSKNTAYLQMNSLRAEDTAVYYCARWLGSGYYWFDYWGQGTLVTVSS VL: not shown | 0.0109 µM | -7.96 |
| Trastuzumab HCDR3 variant ARWLAGYNYYFDV (Fab, V domains shown) VH: EVQLVESGGGLVQPGGSLRLSCAASGFNIKDTYIHWVRQAPGKGLEWVARIYPTNGYTRYADSVKGRFTISADTSKNTAYLQMNSLRAEDTAVYYCARWLAGYNYYFDVWGQGTLVTVSS VL: not shown | 0.0157 µM | -7.8 |
| Trastuzumab HCDR3 variant ARWGYSGWYVMDY (Fab, V domains shown) VH: EVQLVESGGGLVQPGGSLRLSCAASGFNIKDTYIHWVRQAPGKGLEWVARIYPTNGYTRYADSVKGRFTISADTSKNTAYLQMNSLRAEDTAVYYCARWGYSGWYVMDYWGQGTLVTVSS VL: not shown | 0.00693 µM | -8.16 |
| Trastuzumab HCDR3 variant ARWPFYGPYNYDY (Fab, V domains shown) VH: EVQLVESGGGLVQPGGSLRLSCAASGFNIKDTYIHWVRQAPGKGLEWVARIYPTNGYTRYADSVKGRFTISADTSKNTAYLQMNSLRAEDTAVYYCARWPFYGPYNYDYWGQGTLVTVSS VL: not shown | 0.00264 µM | -8.58 |
| Trastuzumab HCDR3 variant ARWRGDGGYYFDY (Fab, V domains shown) VH: EVQLVESGGGLVQPGGSLRLSCAASGFNIKDTYIHWVRQAPGKGLEWVARIYPTNGYTRYADSVKGRFTISADTSKNTAYLQMNSLRAEDTAVYYCARWRGDGGYYFDYWGQGTLVTVSS VL: not shown | 0.0131 µM | -7.88 |
| Trastuzumab HCDR3 variant ARWDSGGPYYFDS (Fab, V domains shown) VH: EVQLVESGGGLVQPGGSLRLSCAASGFNIKDTYIHWVRQAPGKGLEWVARIYPTNGYTRYADSVKGRFTISADTSKNTAYLQMNSLRAEDTAVYYCARWDSGGPYYFDSWGQGTLVTVSS VL: not shown | 0.0154 µM | -7.81 |
| Trastuzumab HCDR3 variant ARWYYGYYYYFDV (Fab, V domains shown) VH: EVQLVESGGGLVQPGGSLRLSCAASGFNIKDTYIHWVRQAPGKGLEWVARIYPTNGYTRYADSVKGRFTISADTSKNTAYLQMNSLRAEDTAVYYCARWYYGYYYYFDVWGQGTLVTVSS VL: not shown | 0.00704 µM | -8.15 |
| Trastuzumab HCDR3 variant ARWGYDYYYYFDV (Fab, V domains shown) VH: EVQLVESGGGLVQPGGSLRLSCAASGFNIKDTYIHWVRQAPGKGLEWVARIYPTNGYTRYADSVKGRFTISADTSKNTAYLQMNSLRAEDTAVYYCARWGYDYYYYFDVWGQGTLVTVSS VL: not shown | 0.0267 µM | -7.57 |
| Trastuzumab HCDR3 variant ARWGGYGYYYMDV (Fab, V domains shown) VH: EVQLVESGGGLVQPGGSLRLSCAASGFNIKDTYIHWVRQAPGKGLEWVARIYPTNGYTRYADSVKGRFTISADTSKNTAYLQMNSLRAEDTAVYYCARWGGYGYYYMDVWGQGTLVTVSS VL: not shown | 0.00878 µM | -8.06 |
| Trastuzumab HCDR3 variant ARWTERGFYSFDI (Fab, V domains shown) VH: EVQLVESGGGLVQPGGSLRLSCAASGFNIKDTYIHWVRQAPGKGLEWVARIYPTNGYTRYADSVKGRFTISADTSKNTAYLQMNSLRAEDTAVYYCARWTERGFYSFDIWGQGTLVTVSS VL: not shown | 0.00928 µM | -8.03 |
| Trastuzumab HCDR3 variant ARWGSIGYYAFDH (Fab, V domains shown) VH: EVQLVESGGGLVQPGGSLRLSCAASGFNIKDTYIHWVRQAPGKGLEWVARIYPTNGYTRYADSVKGRFTISADTSKNTAYLQMNSLRAEDTAVYYCARWGSIGYYAFDHWGQGTLVTVSS VL: not shown | 0.0205 µM | -7.69 |
| Trastuzumab HCDR3 variant ARNYYDLYYYFDY (Fab, V domains shown) VH: EVQLVESGGGLVQPGGSLRLSCAASGFNIKDTYIHWVRQAPGKGLEWVARIYPTNGYTRYADSVKGRFTISADTSKNTAYLQMNSLRAEDTAVYYCARNYYDLYYYFDYWGQGTLVTVSS VL: not shown | 0.00841 µM | -8.08 |

| Binder | Kd | log(KD (M)) |
| --- | --- | --- |
| Trastuzumab HCDR3 variant AKYLGQEAYAYFS (Fab, V domains shown) VH: EVQLVESGGGLVQPGGSLRLSCAASGFNIKDTYIHWVRQAPGKGLEWVARIYPTNGYTRYADSVKGRFTISADTSKNTAYLQMNSLRAEDTAVYYCAKYLGQEAYAYFSWGQGTLVTVSS VL: not shown | 0.0149 µM | -7.83 |
| Trastuzumab HCDR3 variant ARWWGGGAYYFDY (Fab, V domains shown) VH: EVQLVESGGGLVQPGGSLRLSCAASGFNIKDTYIHWVRQAPGKGLEWVARIYPTNGYTRYADSVKGRFTISADTSKNTAYLQMNSLRAEDTAVYYCARWWGGGAYYFDYWGQGTLVTVSS VL: not shown | 0.0149 µM | -7.83 |
| Trastuzumab HCDR3 variant ARWYYYGGYYFDY (Fab, V domains shown) VH: EVQLVESGGGLVQPGGSLRLSCAASGFNIKDTYIHWVRQAPGKGLEWVARIYPTNGYTRYADSVKGRFTISADTSKNTAYLQMNSLRAEDTAVYYCARWYYYGGYYFDYWGQGTLVTVSS VL: not shown | 0.00829 µM | -8.08 |
| Trastuzumab HCDR3 variant ARWGGPGYYAFVW (Fab, V domains shown) VH: EVQLVESGGGLVQPGGSLRLSCAASGFNIKDTYIHWVRQAPGKGLEWVARIYPTNGYTRYADSVKGRFTISADTSKNTAYLQMNSLRAEDTAVYYCARWGGPGYYAFVWWGQGTLVTVSS VL: not shown | 0.00808 µM | -8.09 |
| Trastuzumab HCDR3 variant ARWLRALGYYMDY (Fab, V domains shown) VH: EVQLVESGGGLVQPGGSLRLSCAASGFNIKDTYIHWVRQAPGKGLEWVARIYPTNGYTRYADSVKGRFTISADTSKNTAYLQMNSLRAEDTAVYYCARWLRALGYYMDYWGQGTLVTVSS VL: not shown | 0.0159 µM and 0.0158 µM | -7.8 |
| Trastuzumab HCDR3 variant ARENDGSPGSFEY (Fab, V domains shown) VH: EVQLVESGGGLVQPGGSLRLSCAASGFNIKDTYIHWVRQAPGKGLEWVARIYPTNGYTRYADSVKGRFTISADTSKNTAYLQMNSLRAEDTAVYYCARENDGSPGSFEYWGQGTLVTVSS VL: not shown | 0.0231 µM | -7.64 |
| Trastuzumab HCDR3 variant ARWYGGGYYYMDY (Fab, V domains shown) VH: EVQLVESGGGLVQPGGSLRLSCAASGFNIKDTYIHWVRQAPGKGLEWVARIYPTNGYTRYADSVKGRFTISADTSKNTAYLQMNSLRAEDTAVYYCARWYGGGYYYMDYWGQGTLVTVSS VL: not shown | 0.0118 µM | -7.93 |
| Trastuzumab HCDR3 variant ANDIYIQGYDLNR (Fab, V domains shown) VH: EVQLVESGGGLVQPGGSLRLSCAASGFNIKDTYIHWVRQAPGKGLEWVARIYPTNGYTRYADSVKGRFTISADTSKNTAYLQMNSLRAEDTAVYYCANDIYIQGYDLNRWGQGTLVTVSS VL: not shown | 0.00399 µM | -8.4 |
| Trastuzumab HCDR3 variant ARWYGYGGYYFDY (Fab, V domains shown) VH: EVQLVESGGGLVQPGGSLRLSCAASGFNIKDTYIHWVRQAPGKGLEWVARIYPTNGYTRYADSVKGRFTISADTSKNTAYLQMNSLRAEDTAVYYCARWYGYGGYYFDYWGQGTLVTVSS VL: not shown | 0.00743 µM | -8.13 |
| Trastuzumab HCDR3 variant ARWPGYGSYYMDV (Fab, V domains shown) VH: EVQLVESGGGLVQPGGSLRLSCAASGFNIKDTYIHWVRQAPGKGLEWVARIYPTNGYTRYADSVKGRFTISADTSKNTAYLQMNSLRAEDTAVYYCARWPGYGSYYMDVWGQGTLVTVSS VL: not shown | 0.00483 µM | -8.32 |
| Trastuzumab HCDR3 variant ARWGYGGYYYFDY (Fab, V domains shown) VH: EVQLVESGGGLVQPGGSLRLSCAASGFNIKDTYIHWVRQAPGKGLEWVARIYPTNGYTRYADSVKGRFTISADTSKNTAYLQMNSLRAEDTAVYYCARWGYGGYYYFDYWGQGTLVTVSS VL: not shown | 0.0191 µM | -7.72 |
| Trastuzumab HCDR3 variant ARWLGEGYYNFDY (Fab, V domains shown) VH: EVQLVESGGGLVQPGGSLRLSCAASGFNIKDTYIHWVRQAPGKGLEWVARIYPTNGYTRYADSVKGRFTISADTSKNTAYLQMNSLRAEDTAVYYCARWLGEGYYNFDYWGQGTLVTVSS VL: not shown | 0.00342 µM | -8.47 |
| Trastuzumab HCDR3 variant ARHFGVASYSFDY (Fab, V domains shown) VH: EVQLVESGGGLVQPGGSLRLSCAASGFNIKDTYIHWVRQAPGKGLEWVARIYPTNGYTRYADSVKGRFTISADTSKNTAYLQMNSLRAEDTAVYYCARHFGVASYSFDYWGQGTLVTVSS VL: not shown | 0.0139 µM | -7.86 |
| Trastuzumab HCDR3 variant ARWGEFGPYYFDY (Fab, V domains shown) VH: EVQLVESGGGLVQPGGSLRLSCAASGFNIKDTYIHWVRQAPGKGLEWVARIYPTNGYTRYADSVKGRFTISADTSKNTAYLQMNSLRAEDTAVYYCARWGEFGPYYFDYWGQGTLVTVSS VL: not shown | 0.00924 µM | -8.03 |
| Trastuzumab HCDR3 variant ARWGYDYYYAMDY (Fab, V domains shown) VH: EVQLVESGGGLVQPGGSLRLSCAASGFNIKDTYIHWVRQAPGKGLEWVARIYPTNGYTRYADSVKGRFTISADTSKNTAYLQMNSLRAEDTAVYYCARWGYDYYYAMDYWGQGTLVTVSS VL: not shown | 0.0194 µM | -7.71 |
